Results from patent US20230035798A1 (CAPELLA BIOSCIENCE, published 2023).
Substitutions are numbered along the chain they refer to. Read-outs that look alike come from different tables or passages of the source.

T1: recombinant human soluble LIGHT, amino acids 74-240 (R&D Systems 664-LI-025) (human, UniProt O43557 74-240)
T1 chain: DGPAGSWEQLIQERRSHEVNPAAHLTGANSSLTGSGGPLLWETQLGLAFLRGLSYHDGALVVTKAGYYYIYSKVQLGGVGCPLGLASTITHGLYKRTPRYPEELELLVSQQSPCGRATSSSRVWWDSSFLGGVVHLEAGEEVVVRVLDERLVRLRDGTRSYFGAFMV

B1: 2E08 (antibody, human IgG4, V domains shown)
VH: QVQMKESGAELVRPGVSVKISCKGSGYTFTDYAIHWVKQSHAKTLEWIGVISTYYGDASYNQKFKGKATMTVDKSSSTAYMELARLTSDDSAIYYCARSRGEYGNYDAMDYWGQGTSVTVSS
VL: DIVLTQSPASLAVSLGQRATISCKASQSVDYDGDSYMNWYQQKPGQPPKLLIYAASNLESGIPARFSGSGSGTDFTLNIHPVEEEDAATYYCQQSNEDPLTFGAGTKLELK
notes: chimeric human IgG4 (S-to-P, L-to-E at 248), human CL; also called Parental 2E08
B2: 2B11 (antibody, human IgG4, V domains shown)
VH: B1 VH with Q1E, M4L, K5V, T44S, D89E
VL: DIVLTQSPASLAVSLGQRATISCRASESVDSYGNSFMHWYQQKPGQPPKLLIYRASNLESGIPARFSGSGSRTDFTLTINPVEADDVATYYCQQSNEDPYTFGGGTKLEIK
notes: chimeric human IgG4 (S-to-P, L-to-E at 248), human CL; also called Parental 2B11
B3: 3A07 (antibody, human IgG4, V domains shown)
VH: QVQLQQSGAELVRPGAPVTLSCKASDYTFTDSEIHWVKQTPVHGLEWIGEIDPETGGTAYNQKFKGKATLTADKSSSTAYMELRSLTSEDSAVYYCSRETDYFFDYWGQGTTLTVSS
VL: ENVLTQSPAIMSASPGEKVTMTCSASSSVSYMYWYQQRPGSSPRLLIYDTSNLASGVPVRFSGSGSGTSYSLTISRMEAEDAATYYCQQWSSYPLTFGSGTKLEIK
notes: chimeric human IgG4 (S-to-P, L-to-E at 248), human CL; also called Parental 3A07
B4: 3B04 (antibody, human IgG4, V domains shown)
VH: B3 VH with S7P, P17S, D26G, S32Y, I34M, G57D, N61S, L83F
VL: DIQMTQTPASLSASVGETVTITCGASENIYGALNWYQRKQGKSPQLLIYGATNLADGMSSRFSGSGSGRQYSLKISSLHPDDFATYYCQNVLTTPWTFGGGTKLEIKR
notes: chimeric: mouse variable domains on human IgG4 HC (S-to-P and L-to-E at 248) and human CL; also called Parental 3B04; 3B04 chimeric
B5: 3C10 (antibody, human IgG4, V domains shown)
VH: B3 VH with Q1E, P17S
VL: B3 VL with E1D, N2V, L4M, S7T, R38K, S99A, I105L
notes: chimeric human IgG4 (S-to-P, L-to-E at 248), human CL; also called Parental 3C10
B6: 3E09 (antibody, V domains shown)
VH: EVQLVESGGGLVKPGGSLKLSCEASGFTFSDYYMYWVRQTPEKRLEWVAAIGDGGIYTYYADTVKGRFTISRDNAKNILYLQMSSLKSNDTAMYYCARGTGDGFAYWGQGTLVTVS
VL: B2 VL with R54L, I62V, N80D, V87A, S95N
notes: chimeric human IgG4 (S-to-P, L-to-E at 248), human CL; also called Parental 3E09

Tests used:
[1] = target: T2, membrane LIGHT without residues 81-84 (EL4-NC-LIGHT cells) (human, UniProt O43557 1-240); experiment: cell-based or functional assay
T2 sequence (O43557 other isoform, or with tags, fused parts or gaps): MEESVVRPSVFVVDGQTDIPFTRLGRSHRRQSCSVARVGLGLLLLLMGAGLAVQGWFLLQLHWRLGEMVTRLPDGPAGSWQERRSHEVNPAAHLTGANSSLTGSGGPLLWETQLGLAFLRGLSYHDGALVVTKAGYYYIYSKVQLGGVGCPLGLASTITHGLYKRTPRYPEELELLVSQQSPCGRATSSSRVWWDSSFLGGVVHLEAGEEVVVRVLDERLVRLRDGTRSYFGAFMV

[2] = target: T1, recombinant human soluble LIGHT, amino …; experiment: cell-based or functional assay
[3] = target: T3, human LIGHT (TNFSF14), full length, membrane-bound (214E allele) (human, UniProt O43557 1-240); experiment: DcR3-His (1 nM) competition, EL4-LIGHT, flow cytometry; 0.41 nM
T3 construct: also called membrane LIGHT; human membrane LIGHT
Description: (§1) EL4-LIGHT cells (0.25×10⁶) were preincubated with anti-membrane LIGHT mAbs (0-300 nM) for 15 min at 4° C. followed by incubation with DcR3-His tagged (1 nM, Creative BioMart; ref: TNFRSF6B-552H, lot: 962512) for 30 min at 4° C. The samples were then incubated with mouse anti-histag antibody (diluted 1:500, Biolegend, cat. no. 652502) for 30 minutes at 4° C., followed by incubation with anti-mouse APC (dil 1:500, BDBiosciences, cat. no. 550826) for 30 minutes at 4° C. The tubes were washed three times after each of the detection antibody stages and flow cytometry analysis was performed. Specific mean fluorescence intensity (MFI) obtained from the binding of DcR3-His to LIGHT on EL4 cells were used to determine the levels of competition binding.
(§2) In humans, LIGHT is neutralized by DcR3, a unique soluble member of the TNFR superfamily, which tightly binds LIGHT (both soluble and membrane forms) and inhibits its interactions with HVEM and LTβR. A major binding determinant for DcR3 neutralization is the region T170-E178 on LIGHT (Liu et al. Structure 2014: 9; 1252-1262). […] In contrast the anti-LIGHT mAb F19, (from EP2292663) which binds both soluble LIGHT and membrane LIGHT equally well completely displaces DcR3 from binding to membrane LIGHT highlighting a surprising an important functional difference between the anti-membrane LIGHT mAbs of this invention and other neutralizing anti-LIGHT mAbs that have been raised against or screened against soluble LIGHT.
Target sequence in this assay (O43557 whole entry K214E): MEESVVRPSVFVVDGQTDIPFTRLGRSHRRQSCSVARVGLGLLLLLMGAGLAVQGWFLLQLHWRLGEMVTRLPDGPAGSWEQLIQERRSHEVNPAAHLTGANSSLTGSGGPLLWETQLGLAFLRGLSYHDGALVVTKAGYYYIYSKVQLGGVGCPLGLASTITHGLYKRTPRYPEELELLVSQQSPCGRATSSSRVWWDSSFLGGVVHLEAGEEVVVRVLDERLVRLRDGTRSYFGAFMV

[4] = target: T3, human LIGHT (TNFSF14), full length, …; experiment: flow cytometry, maximum signal compared with F19 and F23
Target sequence in this assay (O43557 whole entry K214E): as above

[5] = target: T2, membrane LIGHT without residues 81-84 …; experiment: cell-based or functional assay; remark: listed apart in the source
[6] = target: T3, human LIGHT (TNFSF14), full length, …; experiment: competition with biotin-HVEM-Fc, EL4-LIGHT cells, flow cytometry
Description: (§3) Biotin-LTβR-Fc and biotin-HVEM-Fc were prepared using a kit purchased from ThermoFisher (EZ-Link NHS-LC-Biotin; cat. no. 21336) according to the manufacturer's instructions. […] The diluent used was FACS buffer. The cells were washed 3 times with FACS buffer and biotin-LTβR-Fc and biotin-HVEM-Fc binding detection to cells was performed with streptavidin-APC (1:400; BioLegend cat. No. 405207) for 30 min at 4° C. and fluorescence read in the RL-1 channel. The anti-HEL mAb 2A11 was utilised as a background control.
(§4) The above experiment was repeated utilising LIGHT stably expressed on EL4-cells and the results depicted in Table 11B.
Target sequence in this assay (O43557 whole entry K214E): as above

[7] = target: T3, human LIGHT (TNFSF14), full length, …; experiment: competition with biotin-LTβR-Fc, EL4-LIGHT cells, flow cytometry
Description: as §3, §4
Target sequence in this assay (O43557 whole entry K214E): as above

[8] = target: T3, human LIGHT (TNFSF14), full length, …; experiment: DcR3-His (1 nM) competition, EL4-LIGHT, flow cytometry; 1.23 nM
Description: as §1, §2
Target sequence in this assay (O43557 whole entry K214E): as above

[9] = target: T1, recombinant human soluble LIGHT, amino …; experiment: SPR (BIAcore), as for Table 9
Description: Real-time binding interactions between captured antibody (chimeric anti-membrane LIGHT monoclonal antibody) captured on a biosensor matrix via goat anti-human Fe IgG and recombinant soluble LIGHT were measured by surface plasmon resonance (SPR) using the BIAcore system (GE Healthcare) according to manufacturer's instructions and standard procedures. Briefly, soluble LIGHT was diluted in HBS running buffer (GE Healthcare) and aliquots were injected through the immobilized protein matrices at a flow rate of […]. BIAevaluation software was used to calculate association rate (ka), dissociation rate (kd) and affinity (KD).
The specificity of further anti-membrane LIGHT mAbs to soluble LIGHT was determined by using the same BIAcore analysis discussed above which was used to generate the data in Table 9. In brief, mAbs 3B04, 3D12, 3A07, 3C10 and 2B11 were compared to various prior art antibodies, (F19 and F23 IgG4 mAbs from EP2292663 and 1C02, 13H04 and 31A10 mAbs from WO2015/107331).

[10] = target: T3, human LIGHT (TNFSF14), full length, …; experiment: soluble LIGHT 74-240 KD over membrane LIGHT KD
Target sequence in this assay (O43557 whole entry K214E): as above

[11] = target: T3, human LIGHT (TNFSF14), full length, …; experiment: membrane LIGHT on cells, as for Table 9
[12] = target: T2, membrane LIGHT without residues 81-84 …; experiment: cell-based or functional assay; remark: listed apart in the source
[13] = target: T3, human LIGHT (TNFSF14), full length, …; experiment: KD calculated from EC50 on EL4-LIGHT cells, flow cytometry

Binder | IC50, nM membrane LIGHT (IL-8 release from HT-29 cells) [1] | IC50, nM soluble LIGHT (5 ng/ml; IL-8 release from HT-29 cells) [2] | DcR3-His binding, % of irrelevant mAb [3] | binding ratio, mAb per LIGHT trimer [4] | IC50, inhibition of IL-8 secretion from HT-29 cells (EL4-NC-LIGHT cells) [5] | IC50 [6] | IC50 [7] | DcR3-His binding, % of irrelevant mAb [8] | Kd [9] | Membrane:soluble LIGHT affinity ratio [10] | Kd [11] | IC50, inhibition of IL-8 secretion from HT-29 cells (EL4-NC-LIGHT cells) [12] | Kd [13]
B1 | 1.8 nM | > 100 nM | 107% | 1 mAb per LIGHT trimer | 1.8 nM | 4.3 nM | 5.7 nM | 118% |  |  |  |  | 
B2 | 0.55 nM | 47 nM | 114% | 1 mAb per LIGHT trimer | 0.6 nM | 0.34 nM | 0.36 nM | 115% | 16 nM | 47.1 | 0.34 nM |  | 
B3 | 2 nM | > 100 nM | 102% | 1 mAb per LIGHT trimer | 2 nM | 0.32 nM | 0.35 nM | 90.6% | 15.8 nM | 105 | 0.15 nM |  | 
B4 | 0.15 nM | 6.5 nM | 94.8% |  | 0.2 nM | 0.13 nM | 0.19 nM | 75.1% | 11.1 nM | 52.9 | 0.21 nM | 0.05 nM | 0.15 nM
B5 | 1.9 nM | > 100 nM | 124% | 1 mAb per LIGHT trimer | 1.9 nM | 0.8 nM | 0.86 nM | 95.5% | 11 nM | 61.1 | 0.18 nM |  | 
B6 |  |  | 94.2% | 1 mAb per LIGHT trimer |  | 24.1 nM | 38 nM | 66.9% |  |  |  |  | 
